± gives the standard deviation.

This series in a line: protein stability index of a GFP-peptide fusion (GPS, HEK-293T) (PSI 1-6); higher = more stable. The settings on record: c terminus: a fixed tail appended.
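Further: 24-mer peptide tiles fused after GFP, lentivirally expressed, FACS-sorted into six equal bins by GFP/DsRed ratio, decoded by Illumina sequencing, PSI is the read-weighted mean bin number.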

Turning to TYVDKKRDLLGALKHWRRAMELRH [FEM1A], the protein stability index runs as follows: (treatment: DMSO) 2.28 ± 0.26; (treatment: MLN4924 1 uM, 8 h) 2.31 ± 0.11.
Regarding ELIGACEFMKDRLYFATLRNRPKS [CDC14A], the protein stability index amounted to 2.1 ± 0.5 (treatment: DMSO) and 2.24 ± 0.19 (treatment: MLN4924 1 uM, 8 h).
In the same order, the values of THKKCKEEVVSTLDAVQVLSGVSQ [FCHO1] are 3.77 ± 0.23 and 3.64 ± 0.16.
On the same counts, the results for PYTRSIQILKDTKSITSAMNELQH [TPH1] are 2.61 ± 0.22 and 2.71 ± 0.16.
In the case of LRAELQGHHAEKLPAGAGAPKAGL [TNFSF13B], the protein stability index by setting is: (treatment: DMSO) 4.34 ± 0.32; (treatment: MLN4924 1 uM, 8 h) 4.45 ± 0.35.
On the same counts, the results for HLVIQNLFEGMIWFLVPISSVICN [CDS1] are 2.96 ± 0.2 and 3.25 ± 0.41.
In the same order, the values of NRSDHGIFHSRTSLQKLSTKLSAQ [FCHSD1] are 3.43 ± 0.25 and 3.67 ± 0.36.
In the same order, the values of NLSRGQTPLTEGSEDLDGHSDPEE [RETREG3] are 5.65 ± 0.22 and 5.67 ± 0.15.
DFGDMHSYVRSRKRLREEEAARLF [TRIB1]: the protein stability index was found to be 3.5 ± 0.3 (treatment: DMSO) and 3.85 ± 0.45 (treatment: MLN4924 1 uM, 8 h).
On the same counts, the results for ELFIITQLQSMPSRELASMNLDIV [RHOBTB3] are 2.31 ± 0.85 and 3.25 ± 0.55.
For the sequence KRVYEEFTKVVQPQEEIATKKLRL [INTS4], the protein stability index was 3.31 ± 0.33 (treatment: DMSO) and 3.86 ± 0.36 (treatment: MLN4924 1 uM, 8 h).
Regarding KPEAPLHLPVTFPGKDYDADRQCQ [ADAMTS4], the protein stability index was found to be 5.05 ± 0.15 (treatment: DMSO) and 5.13 ± 0.22 (treatment: MLN4924 1 uM, 8 h).
In the same order, the values of SLPTTAPSNSSSLTLSGIKEDNSL [MYBL2] are 4.91 ± 0.17 and 5.2 ± 0.13.
In turn, LNTLTLNVKSEKVYTRHGVPISVT [FLOT1] displayed a protein stability index (treatment: DMSO) of 2.51 ± 0.079 and a protein stability index (treatment: MLN4924 1 uM, 8 h) of 2.61 ± 0.21.
For QPRGGVSSRIEQGEWGGRHPSWPW, the protein stability index runs as follows: (treatment: DMSO) 2.99 ± 0.44; (treatment: MLN4924 1 uM, 8 h) 3 ± 0.68.
In the same order, the values of PHTVLDRQLLCLIDYYESKIRKIH [CEP70] are 2.46 ± 0.34 and 2.28 ± 0.19.
As to EANGLLPDDKLTLFCEVSVVQDSV [SPOPL], the protein stability index stood at 2.88 ± 0.49 (treatment: DMSO) and 3.03 ± 0.66 (treatment: MLN4924 1 uM, 8 h).
Consider LDKELRAMLREKFPEFCSSPSPPV [INTS3], for which the protein stability index worked out at 3.22 ± 0.31 (treatment: DMSO) and 3.42 ± 0.31 (treatment: MLN4924 1 uM, 8 h).
On the same counts, the results for RCYYYEDTISTIKSVAWEGGACPA [NCF4] are 2.31 ± 0.21 and 2.43 ± 0.24.
Regarding VLQIDNAKLAADDFRTKYETELSL [KRT36], the protein stability index (treatment: DMSO) is 3.54 ± 0.37 and the protein stability index (treatment: MLN4924 1 uM, 8 h) was found to be 3.49 ± 0.14.
On the same counts, the results for LKATFSGFTKEQQRLGIPKDPRQW [ETS1] are 2.75 ± 0.25 and 2.82 ± 0.36.
On the same counts, the results for EDEKLCDPNTRPVGEKNCTGPPCD [ADAMTSL2] are 5.47 ± 0.21 and 5.46 ± 0.26.
In the same order, the values of ELTLARTDLEMQIEGLKEELAYLR [KRT16] are 2.95 ± 0.61 and 2.79 ± 0.44.
GVFGFFATIVFATDFYLIFNDVAK [CMTM3]: the protein stability index was 2.75 ± 0.27 (treatment: DMSO) and 3.44 ± 0.43 (treatment: MLN4924 1 uM, 8 h).
Turning to SRETQRTPMNHQKAVNDETCKASH [FBXO34], the protein stability index was determined as 5.06 ± 0.09 (treatment: DMSO) and 5.17 ± 0.19 (treatment: MLN4924 1 uM, 8 h).
For the sequence LMDCCLIVYHPYRPLLQYVQDMGQ [CCNC], the protein stability index was 3.26 ± 0.83 (treatment: DMSO) and 3.17 ± 0.55 (treatment: MLN4924 1 uM, 8 h).
In the same order, the values of EDSAESRPWRAGVLAEGDNASRSL [PSD2] are 5.21 ± 0.18 and 5.14 ± 0.084.
In the same order, the values of LDFLPKDVKKEKLSPDIMKDAYVQ [TENT5D] are 3.96 ± 0.14 and 3.78 ± 0.26.
For the sequence TSKCGSLKNIRHRPGGGRVKIESV [MAP2], the protein stability index (treatment: DMSO) turned out to be 3.1 ± 0.21 and the protein stability index (treatment: MLN4924 1 uM, 8 h) worked out at 3.3 ± 0.44.

(Values after the supplement of paper PMC10567573.)
